Source: the supplement of paper PMC11316812
± gives the standard deviation of the averaged measurements.

Columns and labels:
hTERT-HMEC = assay: percentage of EdU-negative (G0-arrested) nuclei per well, 72 h; higher = more G0 arrest; settings: reference: sequence is the full UniProt precursor, the tested protein was the secreted form or ectodomain
MCF7 = assay: as above; settings: reference: sequence is the full UniProt precursor, the tested protein was the secreted form or ectodomain
[1] = protein concentration 0.0225 µM
[2] = protein concentration 0.019925 µM
[3] = protein concentration 0.19925 µM
[4] = protein concentration 0.020585 µM
[5] = protein concentration 0.20585 µM
[6] = protein concentration 0.0065 µM
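Further: secreted proteins added to cultured cells, EdU pulse at the end, nuclei found by Hoechst imaging, EdU status from nuclear versus surrounding ring intensity ratio, PBS as neutral control.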

Row | Sequence | percentage of EdU-negative (hTERT-HMEC; [1]) [%] | percentage of EdU-negative (hTERT-HMEC; protein concentration 0.225 µM) [%] | percentage of EdU-negative (MCF7; [1]) [%] | percentage of EdU-negative (MCF7; protein concentration 0.225 µM) [%] | also measured
1 | MAVFKTTLWRLISGTLGIICLSLMSTLGILLKNSFTKLSIEPAFTPGPNIELQKDSDCCSCQEKWVGYRCNCYFISSEQKTWNESRHLCASQKSSLLQLQNTDELDFMSSSQQFYWIGLSYSEEHTAWLWENGSALSQYLFPSFETFNTKNCIAYNPNGNALDESCEDKNRYICKQQLI | 4.98 ± 0.64 | 5.53 ± 0.17 | 26.6 ± 3 | 25.3 ± 3.1 | –
2 | MAVGKFLLGSLLLLSLQLGQGWGPDARGVPVADGEFSSEQVAKAGGTWLGTHRPLARLRRALSGPCQLWSLTLSVAELGLGYASEEKVIFRYCAGSCPRGARTQHGLALARLQGQGRAHGGPCCRPTRYTDVAFLDDRHRWQRLPQLSAAACGCGG | – | – | – | – | percentage of EdU-negative (hTERT-HMEC; [2]): 5.17 ± 0.068%; percentage of EdU-negative (hTERT-HMEC; [3]): 5.42 ± 0.64%; percentage of EdU-negative (MCF7; [2]): 27.7 ± 0.63%; percentage of EdU-negative (MCF7; [3]): 26.7 ± 3.4%
3 | MAVKKIAIFGATGQTGLTTLAQAVQAGYEVTVLVRDSSRLPSEGPRPAHVVVGDVLQAADVDKTVAGQDAVIVLLGTRNDLSPTTVMSEGARNIVAAMKAHGVDKVVACTSAFLLWDPTKVPPRLQAVTDDHIRMHKVLRESGLKYVAVMPPHIGDQPLTGAYTVTLDGRGPSRVISKHDLGHFMLRCLTTDEYDGHSTYPSHQYQ | 5.08 ± 0.64 | 5.64 ± 0.7 | 22.7 ± 3 | 23.37 ± 0.19 | –
4 | MAVKLGTLLLALALGLAQPASARRKLLVFLLDGFRSDYISDEALESLPGFKEIVSRGVKVDYLTPDFPSLSYPNYYTLMTGRHCEVHQMIGNYMWDPTTNKSFDIGVNKDSLMPLWWNGSEPLWVTLTKAKRKVYMYYWPGCEVEILGVRPTYCLEYKNVPTDINFANAVSDALDSFKSGRADLAAIYHERIDVEGHHYGPASPQRKDALKAVDTVLKYMTKWIQERGLQDRLNVIIFSDHGMTDIFWMDKVIELNKYISLNDLQQVKDRGPVVSLWPAPGKHSEIYNKLSTVEHMTVYEKEAIPSRFYYKKGKFVSPLTLVADEGWFITENREMLPFWMNSTGRREGWQRGWHGYDNELMDMRGIFLAFGPDFKSNFRAAPIRSVDVYNVMCNVVGITPLPNNGSWSRVMCMLKGRASTAPPVWPSHCALALILLFLLA [Q6UWR7] | 4.73 ± 0.19 | 5.87 ± 0.68 | 25.6 ± 0.4 | 27.791 ± 0.0037 | –
5 | MAVRQWVIALALAALLVVDREVPVAAGKLPFSRMPICEHMVESPTCSQMSNLVCGTDGLTYTNECQLCLARIKTKQDIQIMKDGKC | 5.06 ± 0.67 | 4.68 ± 0.28 | 26.2 ± 1.9 | 25.8 ± 0.45 | –
6 | MAVRRDSVWKYCWGVLMVLCRTAISKSIVLEPIYWNSSNSKFLPGQGLVLYPQIGDKLDIICPKVDSKTVGQYEYYKVYMVDKDQADRCTIKKENTPLLNCAKPDQDIKFTIKFQEFSPNLWGLEFQKNKDYYIISTSNGSLEGLDNQEGGVCQTRAMKILMKVGQDASSAGSTRNKDPTRRPELEAGTNGRSSTTSPFVKPNPGSSTDGNSAGHSGNNILGSEVALFAGIASGCIIFIVIIITLVVLLLKYRRRHRKHSPQHTTTLSLSTLATPKRSGNNNGSEPSDIIIPLRTADSVFCPHYEKVSGDYGHPVYIVQEMPPQSPANIYYKV | – | – | – | – | percentage of EdU-negative (hTERT-HMEC; [4]): 4.57 ± 1%; percentage of EdU-negative (hTERT-HMEC; [5]): 6.25 ± 0.37%; percentage of EdU-negative (MCF7; [4]): 24.9 ± 1.2%; percentage of EdU-negative (MCF7; [5]): 25.5 ± 0.9%
7 | MAVVPLLLLGGLWSAVGASSLGVVTCGSVVKLLNTRHNVRLHSHDVRYGSGSGQQSVTGVTSVDDSNSYWRIRGKSATVCERGTPIKCGQPIRLTHVNTGRNLHSHHFTSPLSGNQEVSAFGEEGEGDYLDDWTVLCNGPYWVRDGEVRFKHSSTEVLLSVTGEQYGRPISGQKEVHGMAQPSQNNYWKAMEGIFMKPSELLKAEAHHAEL | – | – | – | – | percentage of EdU-negative (hTERT-HMEC; [6]): 5.43 ± 0.74%; percentage of EdU-negative (hTERT-HMEC; protein concentration 0.065 µM): 7.72 ± 0.45%; percentage of EdU-negative (MCF7; [6]): 24.7 ± 0.39%; percentage of EdU-negative (MCF7; protein concentration 0.065 µM): 25.8 ± 1.1%
8 | MAWASRLGLLLALLLPVVGASTPGTVVRLNKAALSYVSEIGKAPLQRALQVTVPHFLDWSGEALQPTRIRILNVHVPRLHLKFIAGFGVRLLAAANFTFKVFRAPEPLELTLPVELLADTRVTQSSIRTPVVSISACSLFSGHANEFDGSNSTSHALLVLVQKHIKAVLSNKLCLSISNLVQGVNVHLGTLIGLNPVGPESQIRYSMVSVPTVTSDYISLEVNAVLFLLGKPIILPTDATPFVLPRHVGTEGSMATVGLSQQLFDSALLLLQKAGALNLDITGQLRSDDNLLNTSALGRLIPEVARQFPEPMPVVLKVRLGATPVAMLHTNNATLRLQPFVEVLATASNSAFQSLFSLDVVVNLRLQLSVSKVKLQGTTSVLGDVQLTVASSNVGFIDTDQVRTLMGTVFEKPLLDHLNALLAMGIALPGVVNLHYVAPEIFVYEGYVVISSGLFYQS [Q8N4F0] | 5.06 ± 0.73 | 15.4 ± 0.54 | 25.8 ± 3.4 | 34.57 ± 0.04 | –
